Data set [1] addresses T1, TNKS2 (tankyrase 2) ARC4 (Homo sapiens, UniProt Q9H2K2).
T1 construct: ARC4 domain (ankyrin repeat cluster 4); CFP-ARC4 fusion in FRET, unlabelled ARC4 in DSF
T1 sequence (Q9H2K2 484-649 limits assumed): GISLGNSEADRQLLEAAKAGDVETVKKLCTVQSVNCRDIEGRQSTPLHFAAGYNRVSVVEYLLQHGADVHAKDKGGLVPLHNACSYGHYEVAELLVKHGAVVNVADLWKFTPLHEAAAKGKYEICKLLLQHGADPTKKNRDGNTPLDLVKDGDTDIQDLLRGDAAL
The experiment in a line: FRET competition with YFP-TBM peptide (Ki calculated from IC50); DSF Tm shift […] °C at […]. The data set is classed as binding.

For data set [2], the target named is T1, TNKS2 (tankyrase 2) ARC4. The data set is described as above. It is filed as binding. The source holds these as a separate data set.
The target of data set [3] is T2, CFP-ARC2-3 (TNKS1) (human, mCerulean fusion omitted; conventional ARC limits).
T2 chain: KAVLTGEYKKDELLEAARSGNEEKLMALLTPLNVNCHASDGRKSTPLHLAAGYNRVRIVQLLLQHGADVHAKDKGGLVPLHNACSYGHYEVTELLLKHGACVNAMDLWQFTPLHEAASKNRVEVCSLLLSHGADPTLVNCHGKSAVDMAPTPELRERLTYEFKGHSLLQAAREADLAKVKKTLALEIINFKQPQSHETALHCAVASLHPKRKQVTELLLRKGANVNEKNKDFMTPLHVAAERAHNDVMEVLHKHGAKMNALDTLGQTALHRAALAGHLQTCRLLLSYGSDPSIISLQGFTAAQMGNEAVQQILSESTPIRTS
The data set is described as follows: FRET or BRET; titration for Kd after Song et al.: CFP-fusion kept constant (50 nM to 1.1 µM), YFP-fusion 0-4,000 nM; FRET emission on excitation at 430 nm; assay buffer 10 mM Bis-Tris-Propane pH 7.0, 3% PEG20,000, 0.01% Triton-X100, 0.5 mM TCEP; 384-well plates, 4 replicates; the paper calls the constants an estimation. The conditions noted are these: both partners purified.

Data set [4] addresses T3, CFP-ARC1 (TNKS1) (human, N-terminal mCerulean fusion omitted; conventional ARC limits).
T3 chain: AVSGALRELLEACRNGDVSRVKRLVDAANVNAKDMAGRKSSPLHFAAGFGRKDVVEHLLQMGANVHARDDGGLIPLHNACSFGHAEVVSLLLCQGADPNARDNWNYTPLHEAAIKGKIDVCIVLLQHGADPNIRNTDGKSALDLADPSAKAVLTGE
The data set is described as above. The conditions noted are these: both partners purified.

Data set [5] concerns the target T4, CFP-ARC5 (TNKS1) (human, N-terminal mCerulean fusion omitted; conventional ARC limits).
T4 chain: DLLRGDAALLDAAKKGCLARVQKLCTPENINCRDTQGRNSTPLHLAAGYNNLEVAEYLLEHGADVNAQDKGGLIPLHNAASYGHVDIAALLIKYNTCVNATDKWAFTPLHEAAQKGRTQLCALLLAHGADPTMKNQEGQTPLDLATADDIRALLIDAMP
The description is as above. The following applies: both partners purified.

Data set [6] concerns the target T5, CFP-ARC2 (TNKS1) (human, N-terminal mCerulean fusion omitted; conventional ARC limits).
T5 chain: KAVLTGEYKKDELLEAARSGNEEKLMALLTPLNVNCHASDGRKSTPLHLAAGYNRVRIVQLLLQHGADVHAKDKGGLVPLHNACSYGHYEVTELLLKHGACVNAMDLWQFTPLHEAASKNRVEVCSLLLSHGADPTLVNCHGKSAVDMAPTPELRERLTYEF
The description is as above. The conditions noted are these: both partners purified.

The target in data set [7] is T6, CFP-ARC4 (TNKS1) (human, N-terminal mCerulean fusion omitted; limits by homology to TNKS2 ARC4 488-649).
T6 chain: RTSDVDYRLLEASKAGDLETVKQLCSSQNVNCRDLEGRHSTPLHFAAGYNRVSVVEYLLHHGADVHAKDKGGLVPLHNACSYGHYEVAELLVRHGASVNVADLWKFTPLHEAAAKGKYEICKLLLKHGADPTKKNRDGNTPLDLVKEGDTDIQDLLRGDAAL
The data set is described as above. The conditions noted are these: both partners purified.

In data set [8] the target is T7, CFP-ARC5 (TNKS2) (human, N-terminal mCerulean fusion omitted; conventional ARC limits).
T7 chain: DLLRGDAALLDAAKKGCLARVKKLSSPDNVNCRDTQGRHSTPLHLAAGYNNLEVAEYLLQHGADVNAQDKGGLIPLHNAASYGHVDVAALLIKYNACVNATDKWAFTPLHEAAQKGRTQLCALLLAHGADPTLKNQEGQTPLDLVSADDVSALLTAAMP
The data set is described as above. The conditions noted are these: both partners purified.

For data set [9], the target named is T8, CFP-ARC1 (TNKS2) (human, N-terminal mCerulean fusion omitted; conventional ARC limits).
T8 chain: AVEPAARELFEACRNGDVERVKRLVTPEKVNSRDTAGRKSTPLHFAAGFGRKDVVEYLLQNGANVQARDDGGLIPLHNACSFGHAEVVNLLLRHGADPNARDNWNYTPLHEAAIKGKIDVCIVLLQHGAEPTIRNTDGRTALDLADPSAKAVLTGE
The data set is described as above. The conditions noted are these: both partners purified.

For data set [10], the target named is T9, CFP-ARC4 (TNKS2) (human, N-terminal mCerulean fusion omitted; limits from the TNKS2 ARC4 crystal construct convention (e.g. 3TWR), as Table S1 is not shown).
T9 chain: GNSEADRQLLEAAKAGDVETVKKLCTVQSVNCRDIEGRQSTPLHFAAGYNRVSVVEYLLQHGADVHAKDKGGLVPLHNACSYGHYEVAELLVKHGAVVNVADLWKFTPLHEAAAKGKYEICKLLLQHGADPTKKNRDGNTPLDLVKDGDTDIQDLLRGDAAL
The data set is described as above. The following applies: both partners purified.

Data set [11] deals with T2, CFP-ARC2-3 (TNKS1). The description is as above. The conditions noted are these: both partners purified.
Data set [12] has as its target T10, unlabelled TNKS2 ARC4 (human, His6-MBP removed by TEV; the residual N-terminal SM is omitted; limits from the TNKS2 ARC4 crystal construct convention).
T10 chain: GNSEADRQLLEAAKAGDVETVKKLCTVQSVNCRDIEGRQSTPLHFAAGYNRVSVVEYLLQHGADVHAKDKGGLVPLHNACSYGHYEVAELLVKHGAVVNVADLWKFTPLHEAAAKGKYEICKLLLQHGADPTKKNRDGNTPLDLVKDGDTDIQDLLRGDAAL
The experiment in a line: differential scanning fluorimetry; 5 µM unlabelled TNKS2 ARC4, 5x SYPRO Orange, 100 µM TBM peptide; assay buffer pH 7.0, 1% DMSO; 20-95 °C at 1 °C/min; 4 replicates. The following applies: both partners purified. (DSF heats the sample and reads unfolding from a dye or from intrinsic fluorescence.)

Data set [13] concerns the target T11, TNKS1 SAM(E1050K)-CFP (human, UniProt O95271 1030-1089, E1050K).
T11 construct: human tankyrase 1 (TNKS1), sterile alpha-motif (SAM) domain; also called ML surface mutant of the TNKS1 SAM domain; source: E. coli BL21(DE3), purified (IMAC); not shown: mCerulean (CFP), C-terminal, kept
T11 sequence (looked up): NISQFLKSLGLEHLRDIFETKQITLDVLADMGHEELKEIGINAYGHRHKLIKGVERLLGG
The data set is described as follows: FRET or BRET; titration for Kd after Song et al.: CFP-fusion kept constant (50 nM to 1.1 µM), YFP-fusion 0-4,000 nM; FRET emission on excitation at 430 nm; assay buffer 10 mM Bis-Tris-Propane pH 7.0, 3% PEG20,000, 0.01% Triton-X100, 0.5 mM TCEP; 384-well plates, 4 replicates; the paper calls the constants an estimation. The conditions noted are these: both partners purified.

Data on 5 molecules can be found in paper PMC7378079 (Scientific Reports, 2020).

Read-outs that look alike come from different tables or passages of the source.

Broadly, the Ki is a measure of affinity in units of concentration, obtained from inhibition or displacement. In the case of `O=c1[nH]c2cc(C(F)(F)F)c(N3CCOCC3)cc2n(CP(=O)(O)O)c1=O` [Fanapanel], the Ki in data set [1] was 20000 nM.

Take `O=C(O)c1cc(O)c2c(Cl)cc(Cl)cc2n1` [DCKA, 5,7-dichlorokynurenic acid]: in [2], the Ki was 62000 nM.

B1: YFP-TBM (peptide)
chain: REAGDGEE
notes: also called TBM (REAGDGEE); YFP-fused TBM; source: E. coli BL21(DE3), purified (IMAC); not shown: mCitrine (YFP), N-terminal, kept
Usually Kd stands for a measure of binding affinity in units of concentration. Turning to B1, the Kd is 13 nM in data set [3]; 2600 nM in [4]; 27 nM in data set [5]; 8.2 nM in data set [6]; 45 nM in data set [7]; 33 nM in [8]. The Kd in data set [9] is 970 nM; in data set [10] it was 35 nM; in [11] it was 12 nM.

B2: TBM-peptide (REAGDGEE) (peptide)
peptide: REAGDGEE
notes: also called 8-mer TBM peptide; source: synthetic peptide, bought: JPT Peptide Technologies
On to B2, for which the “Tm shift at 100 µM” value in data set [12] amounted to 2.94 ± 0.16 °C.

B3: TNKS1 SAM(Y1073A)-YFP (domain or fragment, human, UniProt O95271 1030-1089, looked up)
chain: NISQFLKSLGLEHLRDIFETEQITLDVLADMGHEELKEIGINAAGHRHKLIKGVERLLGG
notes: human tankyrase 1 (TNKS1), sterile alpha-motif (SAM) domain; also called EH surface mutant of the TNKS1 SAM domain; source: E. coli BL21(DE3), purified (IMAC); not shown: mCitrine (YFP), C-terminal, kept
B3: in data set [13], the Kd is 560 nM.
